Measured values taken from patent publication US8648045B2, “VDAC1 compositions and methods of use thereof for regulating apoptosis” (Ben Gurion University of the Negev Research and Development …, priority 2005, dated 2014).

T1: mitochondrial bound HK-I (Rattus norvegicus, UniProt P05708)
T1 construct: from tissue; host or cells: rat brain mitochondria
T1 sequence (P05708 1-918): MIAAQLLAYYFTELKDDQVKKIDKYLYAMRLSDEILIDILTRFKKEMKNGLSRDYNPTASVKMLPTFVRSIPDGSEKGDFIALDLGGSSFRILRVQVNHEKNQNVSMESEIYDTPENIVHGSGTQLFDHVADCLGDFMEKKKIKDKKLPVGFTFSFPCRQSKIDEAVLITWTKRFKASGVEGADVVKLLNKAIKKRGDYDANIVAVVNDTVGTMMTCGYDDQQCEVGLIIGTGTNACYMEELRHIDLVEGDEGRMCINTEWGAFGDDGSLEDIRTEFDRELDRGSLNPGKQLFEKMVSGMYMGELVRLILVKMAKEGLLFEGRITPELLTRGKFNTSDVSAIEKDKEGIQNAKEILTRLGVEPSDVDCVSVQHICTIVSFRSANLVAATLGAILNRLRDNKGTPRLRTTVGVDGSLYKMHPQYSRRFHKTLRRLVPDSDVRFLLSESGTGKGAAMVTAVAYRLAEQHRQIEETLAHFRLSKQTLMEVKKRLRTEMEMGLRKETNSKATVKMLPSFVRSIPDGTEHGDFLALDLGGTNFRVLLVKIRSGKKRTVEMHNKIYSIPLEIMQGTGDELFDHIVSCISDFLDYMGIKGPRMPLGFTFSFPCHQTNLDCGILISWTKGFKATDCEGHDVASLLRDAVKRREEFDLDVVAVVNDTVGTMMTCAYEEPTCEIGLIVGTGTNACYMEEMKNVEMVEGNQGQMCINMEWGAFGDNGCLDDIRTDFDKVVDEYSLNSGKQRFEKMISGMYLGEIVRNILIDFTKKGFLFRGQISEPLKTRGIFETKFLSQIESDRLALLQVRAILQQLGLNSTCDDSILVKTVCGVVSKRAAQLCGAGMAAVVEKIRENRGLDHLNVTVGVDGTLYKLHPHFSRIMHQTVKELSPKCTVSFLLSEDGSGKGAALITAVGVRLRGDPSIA


Experiments:
[1] = target: T1, mitochondrial bound HK-I; experiment: Detachment of mitochondria-bound HK-I; type: biochemical; conditions: peptide N
[2] = target: T2, Bcl2 (Homo sapiens, UniProt P10415); conditions: expression of peptide N in cells overexpressing Bcl2-GFP; Abu Hamad et al., 2009; cited from earlier work
T2 construct: GFP; expressed in transfected cells

[3] = target: T3, E72Q-mVDAC1 (Mus musculus, UniProt Q60932, E72Q); experiment: VDAC channel recording in planar lipid bilayer (PLB); type: biochemical; conditions: HK-I 28.6 mU/ml, 5 min; voltage step 0 to −20 mV; 0.5 M NaCl
T3 construct: made in house; host or cells: yeast (purified from mitochondria of yeast expressing mutated mVDAC1)
Procedure: (§1) Native and mutated mVDAC1 were extracted with lauryldimethylamine N-oxide (LDAO) from mitochondria isolated from yeast expressing various VDACs, and purified by chromatography on hydroxyapatite followed by carboxymethyl (CM)-cellulose where LDAO was replaced by β-OG (β-octylglucoside).
(§2) Reconstitution of purified VDAC into a planar lipid bilayer (PLB) multi-channel current recording and data analyses were carried as follows. Briefly, PLB were prepared from soybean asolactin dissolved in n-decane (50 mg/ml) in a chamber containing 10 mM HEPES/KOH pH 7.4 and 0.5 or 1M NaCl (cis/trans). Only PLBs with a resistance greater than 100 GΩ were used. Purified VDAC (about 1 ng) was added to the chamber defined as the cis side. After one or a few channels inserted into the PLB, excess protein was removed by perfusion of the cis chamber with 20 volumes of a solution (with the same composition as before perfusion), in order to prevent further protein incorporation. Currents were recorded under voltage-clamp mode using a Bilayer Clamp amplifier (Warner Instrument, USA). The currents were measured with respect to the trans side of the membrane (ground). The currents were low-pass filtered at 1 kHz, using a Bessal filter (Frequency Devices, USA) and digitized on-line using a Digidata 1200 interface board and pCLAMP 6 software (Axon Instruments). Sigma Plot 2000 scientific software was used for data analyses. Experiments were performed at 23-25° C.
(§3) FIG. 1A: Purified recombinant native or E72Q-mutated mVDAC1 was reconstituted into a PLB (planar lipid bilayer) in symmetrical solutions of 0.5 M NaCl. Currents through VDAC1 channel in response to a voltage step from zero to −20 mV were recorded before and 5 min after the addition of HK-I (28.6 mU/ml). The dashed lines indicate the zero-current level. […] FIG. 1C: Cytochrome c release was assayed, using a monoclonal anti-cytochrome c antibody, in the absence or the presence of HK-I (1 U/ml), chymotrypsin-treated HK-I (1 U/ml) or CsA (10 micro M).
(§4) RuR, known to interact with several Ca^2+ binding proteins and to inhibit Ca^2+ transport in mitochondria, inhibited channel activity of native but not of E72Q-mutated VDAC1 (FIG. 5E). Purified recombinant native and E72Q-mVDAC1 variant were reconstituted into a planar lipid bilayer (PLB) and the currents produced in response to voltages stepped from a holding potential of 0 mV to −20 mV were recorded. […] The level of inhibition calculated from […] different experiments was 89.2±2.8% (mean±SD, n=9). In contrast, the channel activity of E72Q-mVDAC1 was not inhibited by RuR in all ten experiments.

[4] = target: T4, recombinant native mVDAC1 (Mus musculus, UniProt Q60932); experiment: as above; type: biochemical; conditions: HK-I 28.6 mU/ml, 5 min; voltage step 0 to −20 mV; 0.5 M NaCl
T4 construct: made in house; host or cells: yeast (purified from mitochondria of yeast expressing mVDAC1)
Procedure: as §1, §2, §3, §4

[5] = tested on: U937 cells; experiment: HK-I over-expression protection against apoptotic cell death in double-transfected cells; type: cell-based, human; conditions: staurosporine (STS)
Procedure: U937 cells were transfected with pcDNA3.1-HisA or pcDNA3.1-HisA-HK-I (neomycin resistance; provided by Dr. J. E. Wilson, University of Michigan) by electroporation, and grown in complete RPMI 1640 with neomycin ([…]). After 12 days, the selected cells were transfected with pEGFP, pEGFP-mVDAC1 or pEGFP-E72Q-mVDAC1 and were grown in the presence of neomycin ([…]). The viability of double-transfected cells was analyzed during 48 to 76 hr.
The effect of HK-I over-expression on apoptotic cell death of the GFP-tagged version of native and E72Q-mVDAC1 over-expressing cells was examined.
Since VDAC1 overexpression induces cell death, U937 cells (FIG. 4A, 4B) or T-Rex™ 293 human embryonic kidney cells (FIG. 4B) were first transformed to stably over-express HK-I and then transfected with native, E65Q, E72Q, K73L, D77N, N75A, or G67A mutated mVDAC1-GFP. […] This β-loop includes amino acid residues T64 to about N78.

[6] = tested on: permeability transition pore (PTP); experiment: PTP opening monitored by Ca2+ accumulation and mitochondrial swelling; type: biochemical, rat; conditions: Ca2+ accumulation and swelling of energized mitochondria
Procedure: Ca^2+ uptake by freshly prepared rat liver mitochondria (0.5 mg/ml) was assayed for 1 to 20 minutes at 30° C. in the presence of 225 mM mannitol, 75 mM sucrose, 120 μM CaCl2 (containing 3×10^4 cpm/nmol [^45Ca^2+]), 5 mM HEPES/KOH, 5 mM succinate and 0.1 mM Pi, pH 7.0. Uptake of ^45Ca^2+ was terminated by rapid Millipore filtration followed by a wash with 5 ml of 150 mM KCl.
Ca^2+-induced mitochondria large amplitude swelling was assayed in freshly-prepared mitochondria under the same conditions as for Ca^2+ accumulation, except that the temperature was 24° C. Cyclosporine A (CsA)-sensitive mitochondrial swelling was initiated upon addition of Ca^2+ (0.2 mM) to the sample. Absorbance changes at 520 nm were monitored every 15-20 sec with an Ultraspec 2100 spectrophotometer.
The failure of non-binding species of HK, such as yeast HK, or trypsin- or chymotrypsin-treated HK-I (FIG. 2D) to prevent PTP opening, confirmed the specificity of the HK-I effect, and of the requirement of the HK-I N-terminal region for its interaction with VDAC.
Mitochondrial swelling was assayed in the absence (control ●) or the presence of HK-I (gray ●) and in presence HK-I pre-incubated with peptide LP1. Mitochondrial swelling was assayed as in FIG. 2 in the absence and the presence of peptide LP1 (0.1 mM or 0.3 mM), brain HK-I (0.25 U/ml) or with HK-I pre-incubated for 10 min with LP1. […]

[7] = tested on: mitochondria; experiment: Release of cytochrome c from mitochondria; type: biochemical, rat; conditions: HK-I 1 U/ml; Western blot
Procedure: Mitochondria (0.5 mg/ml) were incubated with or without 1 U/ml of HK-I for 20 min in a solution containing 150 mM KCl, 25 mM NaHCO3, 5 mM succinate, 1 mM MgCl2, 3 mM KH2PO4, 20 mM HEPES, pH 7.4. Swelling was monitored after the addition of 200 μM Ca^2+. Following complete swelling, the samples were centrifuged and mitochondrial pellets (25 μg) or supernatant (40 μl) were subjected to SDS-PAGE and Western blot analyses using monoclonal anti-cytochrome C antibodies.
as §3
The effects of HK-I are similar to those of the well-known inhibitor of PTP, cyclosporine A (CsA) (FIGS. 1C and 2B).

T4 sequence (Q60932 14-296 limits assumed): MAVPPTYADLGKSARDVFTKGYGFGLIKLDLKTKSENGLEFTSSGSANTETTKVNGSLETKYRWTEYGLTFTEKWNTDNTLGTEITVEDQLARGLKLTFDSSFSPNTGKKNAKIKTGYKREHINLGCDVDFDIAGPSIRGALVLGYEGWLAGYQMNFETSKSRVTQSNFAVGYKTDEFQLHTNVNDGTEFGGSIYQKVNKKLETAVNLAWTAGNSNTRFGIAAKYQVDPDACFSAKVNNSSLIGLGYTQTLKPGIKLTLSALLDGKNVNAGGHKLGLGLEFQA
T2 sequence (P10415 whole entry, species assumed): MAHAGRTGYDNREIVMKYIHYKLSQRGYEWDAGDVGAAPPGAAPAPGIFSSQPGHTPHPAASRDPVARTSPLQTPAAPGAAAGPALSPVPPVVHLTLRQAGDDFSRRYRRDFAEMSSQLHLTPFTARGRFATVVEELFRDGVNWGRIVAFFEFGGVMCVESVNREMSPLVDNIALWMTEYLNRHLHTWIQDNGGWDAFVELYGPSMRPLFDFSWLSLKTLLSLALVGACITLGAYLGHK
T3 sequence (Q60932 14-296 E72Q limits assumed): as the sequence (Q60932 14-296 limits assumed) above, with E59Q counted along it

Row | Molecule | detachment or prevention of HK-1 binding to the mitochondria [1] | effect on anti-apoptotic effect of Bcl2 against STS-induced apoptosis [2] | effect of HK-I on VDAC1 channel [3] | effect of HK-I on VDAC1 channel [4] | protection by HK-I over-expression against STS-induced apoptosis [5] | prevention of PTP opening [6] | release of cytochrome c from mitochondria [7]
1 | MAVPPTYADLGKSARDVFTKGYGFGL [Peptide N, 26 amino acid peptide derived from the N-terminal cytosolic segment of VDAC1, amino acids 1-26] | Detachment or prevention of HK-1 binding to the mitochondria was also demonstrated | reversed the anti-apoptotic effect of BCl2 | – | – | – | – | –
2 | HK-I: Hexokinase-I, anti-apoptotic mitochondrial protein that binds to VDAC; purified from rat brain or over-expressed recombinant (protein) MIAAQLLAYYFTELKDDQVKKIDKYLYAMRLSDEILIDILTRFKKEMKNGLSRDYNPTASVKMLPTFVRSIPDGSEKGDFIALDLGGSSFRILRVQVNHEKNQNVSMESEIYDTPENIVHGSGTQLFDHVADCLGDFMEKKKIKDKKLPVGFTFSFPCRQSKIDEAVLITWTKRFKASGVEGADVVKLLNKAIKKRGDYDANIVAVVNDTVGTMMTCGYDDQQCEVGLIIGTGTNACYMEELRHIDLVEGDEGRMCINTEWGAFGDDGSLEDIRTEFDRELDRGSLNPGKQLFEKMVSGMYMGELVRLILVKMAKEGLLFEGRITPELLTRGKFNTSDVSAIEKDKEGIQNAKEILTRLGVEPSDVDCVSVQHICTIVSFRSANLVAATLGAILNRLRDNKGTPRLRTTVGVDGSLYKMHPQYSRRFHKTLRRLVPDSDVRFLLSESGTGKGAAMVTAVAYRLAEQHRQIEETLAHFRLSKQTLMEVKKRLRTEMEMGLRKETNSKATVKMLPSFVRSIPDGTEHGDFLALDLGGTNFRVLLVKIRSGKKRTVEMHNKIYSIPLEIMQGTGDELFDHIVSCISDFLDYMGIKGPRMPLGFTFSFPCHQTNLDCGILISWTKGFKATDCEGHDVASLLRDAVKRREEFDLDVVAVVNDTVGTMMTCAYEEPTCEIGLIVGTGTNACYMEEMKNVEMVEGNQGQMCINMEWGAFGDNGCLDDIRTDFDKVVDEYSLNSGKQRFEKMISGMYLGEIVRNILIDFTKKGFLFRGQISEPLKTRGIFETKFLSQIESDRLALLQVRAILQQLGLNSTCDDSILVKTVCGVVSKRAAQLCGAGMAAVVEKIRENRGLDHLNVTVGVDGTLYKLHPHFSRIMHQTVKELSPKCTVSFLLSEDGSGKGAALITAVGVRLRGDPSIA | – | – | able to close native VDAC1 but not mutated E72Q-VDAC1 | induces its closure | protects against apoptosis induced by STS | inhibited PTP opening | prevented the release of cytochrome c from mitochondria
